Test results: the Human Domainome abundance scans (Beltran et al. 2025)
± gives the uncertainty stated by the source.

B1: POU domain, class 3, transcription factor 2, residues 262 to 338; numbered along this chain, P20265 (parent)
chain: EDTPTSDDLEQFAKQFKQRRIKLGFTQADVGLALGTLYGNVFSQTTICRFEALQLSFKNMCKLKPLLNKWLEEADSS

Variants of: B1
Assay: abundance fitness (aPCA) (normalised: wild type 0, dead -1); higher = more abundant; growth selection in yeast, the domain comes from the species named
Settings: Homo sapiens
Variant K14R has an abundance fitness of -0.077 ± 0.064. For K14W, the abundance fitness was -0.182 ± 0.082. With K14D the abundance fitness was -0.012 ± 0.2. Variant K14Q has an abundance fitness of 0.075 ± 0.098. In the case of C48K, the abundance fitness is reported as 0.066 ± 0.047. In the case of C48A, the abundance fitness is reported as 0.086 ± 0.03. Work on C48S yielded an abundance fitness of 0.029 ± 0.033. With C48P the abundance fitness was -0.115 ± 0.044. For E72P, the abundance fitness was -0.655 ± 0.11. In the case of E72F, the abundance fitness is reported as -0.191 ± 0.066. With G31Y the abundance fitness was -0.213 ± 0.097. Variant G31I has an abundance fitness of -0.399 ± 0.14. G31F gave an abundance fitness of -0.39 ± 0.14. Variant G31W has an abundance fitness of -0.207 ± 0.049. In the case of G31Q, the abundance fitness is reported as -0.188 ± 0.054. Variant G31S has an abundance fitness of 0.025 ± 0.038. For L9V, the abundance fitness was -0.107 ± 0.03. L9A gave an abundance fitness of -0.491 ± 0.041. L9R gave an abundance fitness of -0.716 ± 0.047. With L9C the abundance fitness was -0.246 ± 0.052. Variant V41N has an abundance fitness of 0.008 ± 0.079. V41C showed an abundance fitness of 0.036 ± 0.065. V41E showed an abundance fitness of 0.034 ± 0.038. For V41D, the abundance fitness was 0.047 ± 0.069. For N68T, the abundance fitness was 0.046 ± 0.085. With W70Q the abundance fitness was -0.728 ± 0.088. Variant W70I has an abundance fitness of -0.64 ± 0.15. With L37V the abundance fitness was -0.042 ± 0.029. With L37G the abundance fitness was -0.328 ± 0.026. L37H showed an abundance fitness of -0.194 ± 0.072. Variant A28M has an abundance fitness of -0.208 ± 0.048. Work on L71A yielded an abundance fitness of -0.504 ± 0.16. Variant L71G has an abundance fitness of -0.445 ± 0.088. Work on T45F yielded an abundance fitness of -0.104 ± 0.063. T45C showed an abundance fitness of -0.163 ± 0.047. Work on T45P yielded an abundance fitness of -0.261 ± 0.045. For T45K, the abundance fitness was 0.053 ± 0.038. In the case of R49Y, the abundance fitness is reported as -0.499 ± 0.12. R49E showed an abundance fitness of 0.026 ± 0.032. For R49V, the abundance fitness was -0.868 ± 0.073. In the case of R49G, the abundance fitness is reported as -0.242 ± 0.027. With K58F the abundance fitness was -0.163 ± 0.15. Work on K58D yielded an abundance fitness of -0.088 ± 0.091. Variant K58G has an abundance fitness of -0.033 ± 0.029. Work on K58E yielded an abundance fitness of 0.069 ± 0.039. E1Y gave an abundance fitness of -0.177 ± 0.18. In the case of E1I, the abundance fitness is reported as -0.066 ± 0.17. Work on E1C yielded an abundance fitness of -0.035 ± 0.15. E1W showed an abundance fitness of -0.191 ± 0.084. R19Y showed an abundance fitness of -0.695 ± 0.33. R19P gave an abundance fitness of -0.961 ± 0.17. With R19W the abundance fitness was -0.379 ± 0.043. For R19Q, the abundance fitness was -0.113 ± 0.048. L32F gave an abundance fitness of -0.25 ± 0.49. Variant F50K has an abundance fitness of -0.711 ± 0.1. F50T showed an abundance fitness of -0.682 ± 0.076. With F50M the abundance fitness was -0.485 ± 0.063. Variant F50L has an abundance fitness of -0.487 ± 0.039. Work on F50W yielded an abundance fitness of -0.749 ± 0.067. With F50Y the abundance fitness was -0.412 ± 0.1. For F50G, the abundance fitness was -0.839 ± 0.057. Variant D29R has an abundance fitness of -0.285 ± 0.028. Work on D29N yielded an abundance fitness of -0.228 ± 0.063. Work on D29A yielded an abundance fitness of -0.205 ± 0.035. For D29T, the abundance fitness was -0.428 ± 0.06. Q15T gave an abundance fitness of -0.038 ± 0.045. For Q15H, the abundance fitness was 0.042 ± 0.1. Variant Q15S has an abundance fitness of 0.013 ± 0.036. Q15C showed an abundance fitness of -0.147 ± 0.059. Variant Q27H has an abundance fitness of 0.02 ± 0.063. Work on Q27V yielded an abundance fitness of -0.115 ± 0.032. With Q27D the abundance fitness was -0.356 ± 0.076. In the case of K69M, the abundance fitness is reported as 0.112 ± 0.14. With S56K the abundance fitness was -0.129 ± 0.047. In the case of S56A, the abundance fitness is reported as -0.345 ± 0.043. With S56I the abundance fitness was -0.662 ± 0.14. With S56W the abundance fitness was -0.801 ± 0.081. For Q11V, the abundance fitness was -0.015 ± 0.028. Variant Q11I has an abundance fitness of -0.063 ± 0.089. Q11Y showed an abundance fitness of -0.024 ± 0.063. For Q11P, the abundance fitness was -0.629 ± 0.08. Q11F gave an abundance fitness of -0.062 ± 0.068. For K22V, the abundance fitness was -0.298 ± 0.033. For K22P, the abundance fitness was -0.958 ± 0.18. For K22N, the abundance fitness was -0.117 ± 0.077. For K22R, the abundance fitness was -0.054 ± 0.029. Work on K22A yielded an abundance fitness of 0.009 ± 0.03. In the case of K22D, the abundance fitness is reported as 0.041 ± 0.047. Variant P65A has an abundance fitness of -0.139 ± 0.094. Work on P65Q yielded an abundance fitness of 0.124 ± 0.14. Variant P65S has an abundance fitness of -0.38 ± 0.19. In the case of P65E, the abundance fitness is reported as -0.133 ± 0.072. In the case of K62D, the abundance fitness is reported as -0.045 ± 0.053. With K62T the abundance fitness was -0.059 ± 0.039. With K62L the abundance fitness was -0.007 ± 0.036. For K62A, the abundance fitness was -0.033 ± 0.032. L53T showed an abundance fitness of -0.138 ± 0.046. For L53P, the abundance fitness was -0.961 ± 0.28. Work on L53H yielded an abundance fitness of -0.017 ± 0.069. Variant L53M has an abundance fitness of 0.017 ± 0.042. In the case of S6I, the abundance fitness is reported as 0.011 ± 0.052. S6G showed an abundance fitness of -0.05 ± 0.025. In the case of S6H, the abundance fitness is reported as 0.265 ± 0.068. With S6N the abundance fitness was -0.032 ± 0.049. For S6T, the abundance fitness was 0.099 ± 0.038. S6M gave an abundance fitness of 0.148 ± 0.04. Q54D showed an abundance fitness of -0.035 ± 0.063. With L55V the abundance fitness was -0.573 ± 0.039. With L55C the abundance fitness was -0.318 ± 0.045. For L55N, the abundance fitness was -0.633 ± 0.16. Work on L55P yielded an abundance fitness of -0.586 ± 0.099. With L55D the abundance fitness was -0.369 ± 0.061. L55W gave an abundance fitness of -0.645 ± 0.043. For L55S, the abundance fitness was -0.504 ± 0.045. In the case of V30N, the abundance fitness is reported as -0.381 ± 0.25. With V30G the abundance fitness was -0.776 ± 0.089. Variant V30L has an abundance fitness of -0.306 ± 0.049. V30D gave an abundance fitness of -0.794 ± 0.31. In the case of V30S, the abundance fitness is reported as -1 ± 0.21. With T3Q the abundance fitness was -0.091 ± 0.045. T3P showed an abundance fitness of -0.205 ± 0.054. T3K gave an abundance fitness of -0.023 ± 0.048. In the case of T3S, the abundance fitness is reported as -0.042 ± 0.036. In the case of D75G, the abundance fitness is reported as -0.032 ± 0.027. With D75I the abundance fitness was -0.089 ± 0.092. For D75S, the abundance fitness was 0.032 ± 0.033. With D75F the abundance fitness was -0.3 ± 0.1. Variant G24M has an abundance fitness of -0.821 ± 0.072. Work on G24W yielded an abundance fitness of -0.784 ± 0.054. Work on G24K yielded an abundance fitness of -0.295 ± 0.043. F16D gave an abundance fitness of -0.854 ± 0.1. Work on F16N yielded an abundance fitness of -0.704 ± 0.13. Variant F16A has an abundance fitness of -0.656 ± 0.045. Work on F16L yielded an abundance fitness of -0.477 ± 0.035. Work on F16Q yielded an abundance fitness of -0.647 ± 0.088. For F16K, the abundance fitness was -0.633 ± 0.079. For F16S, the abundance fitness was -0.802 ± 0.059. With F16I the abundance fitness was -0.753 ± 0.13. In the case of F16T, the abundance fitness is reported as -0.677 ± 0.057. F57K showed an abundance fitness of 0.026 ± 0.042. F57L gave an abundance fitness of -0.077 ± 0.03. With F57T the abundance fitness was 0.01 ± 0.036. With F57Y the abundance fitness was 0.056 ± 0.11. Variant F57Q has an abundance fitness of -0.022 ± 0.042. In the case of F57D, the abundance fitness is reported as -0.105 ± 0.066. In the case of F57I, the abundance fitness is reported as -0.049 ± 0.063. For N40K, the abundance fitness was -0.016 ± 0.044. With N40F the abundance fitness was -0.173 ± 0.08. Variant N40G has an abundance fitness of 0.035 ± 0.032. For N40C, the abundance fitness was 0.028 ± 0.06. For C61M, the abundance fitness was -0.088 ± 0.037. In the case of C61K, the abundance fitness is reported as -0.056 ± 0.053. C61F showed an abundance fitness of -0.274 ± 0.053. In the case of C61R, the abundance fitness is reported as -0.025 ± 0.028. Work on L34G yielded an abundance fitness of -0.854 ± 0.059. For L34D, the abundance fitness was -0.76 ± 0.12. L34S gave an abundance fitness of -0.955 ± 0.093. For G35H, the abundance fitness was -0.06 ± 0.065. In the case of G35C, the abundance fitness is reported as -0.113 ± 0.041. G35E showed an abundance fitness of -0.076 ± 0.035. For G35R, the abundance fitness was 0.016 ± 0.028. G35N showed an abundance fitness of 0.008 ± 0.065. For G35V, the abundance fitness was -0.345 ± 0.035. For G35D, the abundance fitness was -0.415 ± 0.06. Variant S76I has an abundance fitness of -0.153 ± 0.063. Work on S76T yielded an abundance fitness of -0.019 ± 0.043. S76M showed an abundance fitness of -0.021 ± 0.045.
